In publication PMC12365351:

Experiments:
[1] = molecular target: rNcSAG1* (recombinant Neospora caninum SAG1, residues 31-317, Strep-tag removed by enterokinase) (Neospora caninum); experiment: SEC; preparative SEC of the proteins after removal of the Strep-tag with enterokinase, 0.1 M Tris-Cl pH 8.0, 0.15 M NaCl, 1 mM EDTA; unique peak slightly shifted towards smaller size; self-association (dimer)
[2] = molecular target: rNcSAG1-ST (recombinant Neospora caninum SAG1, residues 31-317, with C-terminal Twin-Strep-tag) (Neospora caninum); experiment: SEC; analytical SEC of the re-injected main peak, Superdex 200 Increase 10/300 GL, 0.1 M Tris-Cl pH 8.0, 0.15 M NaCl, 1 mM EDTA, 0.5 ml/min; MW estimated from calibration with LMW and HMW kits; self-association (dimer)
[3] = molecular target: rNcSRS2* (recombinant Neospora caninum SRS2, residues 54-401, Strep-tag removed by enterokinase) (Neospora caninum); experiment: SEC; preparative SEC of the proteins after removal of the Strep-tag with enterokinase, 0.1 M Tris-Cl pH 8.0, 0.15 M NaCl, 1 mM EDTA; unique peak slightly shifted towards smaller size; self-association (dimer)
[4] = molecular target: rNcSRS2-ST (recombinant Neospora caninum SRS2, residues 54-401, with C-terminal Twin-Strep-tag) (Neospora caninum); experiment: SEC; analytical SEC of the re-injected main peak, Superdex 200 Increase 10/300 GL, 0.1 M Tris-Cl pH 8.0, 0.15 M NaCl, 1 mM EDTA, 0.5 ml/min; MW estimated from calibration with LMW and HMW kits; self-association (dimer)

rNcSAG1* (recombinant Neospora caninum SAG1, residues 31-317, Strep-tag removed by enterokinase) (domain or fragment)
stoichiometry N [1]: 2

rNcSAG1-ST (recombinant Neospora caninum SAG1, residues 31-317, with C-terminal Twin-Strep-tag) (domain or fragment)
stoichiometry N [2]: 2

rNcSRS2* (recombinant Neospora caninum SRS2, residues 54-401, Strep-tag removed by enterokinase) (domain or fragment)
stoichiometry N [3]: 2

rNcSRS2-ST (recombinant Neospora caninum SRS2, residues 54-401, with C-terminal Twin-Strep-tag) (domain or fragment)
stoichiometry N [4]: 2
